Results: article PMC3748058 (2013)

B1: GFP lamin A WT [human] / GST Nesprin-2 SR52,53 [human] (parent complex)
chain 1: METPSQRRATRSGAQASSTPLSPTRITRLQEKEDLQELNDRLAVYIDRVRSLETENAGLRLRITESEEVVSREVSGIKAAYEAELGDARKTLDSVAKERARLQLELSKVREEFKELKARNTKKEGDLIAAQARLKDLEALLNSKEAALSTALSEKRTLEGELHDLRGQVAKLEAALGEAKKQLQDEMLRRVDAENRLQTMKEELDFQKNIYSEELRETKRRHETRLVEIDNGKQREFESRLADALQELRAQHEDQVEQYKKELEKTYSAKLDNARQSAERNSNLVGAAHEELQQSRIRIDSLSAQLSQLQKQLAAKEAKLRDLEDSLARERDTSRRLLAEKEREMAEMRARMQQQLDEYQELLDIKLALDMEIHAYRKLLEGEEERLRLSPSPTSQRSRGRASSHSSQTQGGGSVTKKRKLESTESRSSFSQHARTSGRVAVEEVDEEGKFVRLRNKSNEDQSMGNWQIKRQNGDDPLLTYRFPPKFTLKAGQVVTIWAAGAGATHSPPTDLVWKAQNTWGCGNSLRTALINSTGEEVAMRKLVRSVTVVEDDEDEDGDDLLHHHHGSHCSSSGDPAEYNLRSRTVLCGTCGQPADKASASGSGAQVGGPISSGSSASSVTVTRSYRSVGGSGGGSFGDNLVTRSYLLGNSSPRTQSPQNCSIM
chain 2: SRFEDWLKSAERTAACPNSSEVLYTSAKEELKRFEAFQRQIHERLTQLELINKQYRRLARENRTDTASRLKQMVHEGNQRWDNLQRRVTAVLRRLRHFTNQREEFEGTRESILVWLTEMDLQLTNVEHFSESDADDKMRQLNGFQQEITLNTNKIDQLIVFGEQLIQKSEPLDAVLIEDELEELHRYCQEVFGRVSRFHRRL

Variants of: B1
Assay: GST pull-down, western blot quantification; COS7 cell lysates; four to seven independent experiments; parent: 0; read off a plot

Variant | screen value [%]
chain 1 R401C | ~51
chain 1 R427G | ~-15
chain 1 V415I | ~55
chain 1 G411D | ~11
chain 1 R419C | ~-10
chain 1 G413C | ~-22
chain 1 L421P | ~-29
